Measured values taken from US5618693, “Interleukin-2 signal transducers and binding assays” (Tularik, Inc.).

Biological target: hStat 5 (affinity purified, 98/94/88 kD from YT cells; 96/95 kD from PBLs) (Homo sapiens, UniProt P42229 SEQ:1-794)
Experiment: pulldown; biotinylated DNA on streptavidin agarose, buffer C, 4 C; retained through wash with mutant oligo 0.2 mg/ml, eluted 0.35 M NaCl
Conditions: tags: native, tyrosine phosphorylated; chain copies: 2
Description: After dialysis, insoluble proteins were removed by centrifugation and the remaining material was chromatographed over a 100 ml S-Sepharose (Pharmacia) column. Protein flow-through was mixed with a DNA-affinity resin prepared by coupling synthetic, biotinylated DNA corresponding to the IL-4 response element of the gene encoding FcgRI (5'-[…]-3) (SEQ ID NO:3) to streptavidin agarose (Sigma). After binding (2 hours at 4° C.), the affinity matrix was placed on a disposable column and washed sequentially with 10 ml of buffer C, 4 ml of buffer C supplemented with a mutated variant of the IL-4 response element (5'-GTATCACCAGTCAAGGAAC-3') (SEQ ID NO:4) at 0.2 mg/ml, and 10 ml of buffer C. Protein was eluted by exposure to buffer C supplemented with 0.35M NaCl, dialyzed against buffer C, and placed on a 0.5 ml Q-Sepharose (Pharmacia) column. The column was washed with 5 ml of buffer C and protein was eluted with 1 ml of buffer C supplemented with 0.35M NaCl.

Chain of hStat 5 (affinity purified, 98/94/88 kD from YT cells; 96/95 kD from PBLs) (P42229 whole entry): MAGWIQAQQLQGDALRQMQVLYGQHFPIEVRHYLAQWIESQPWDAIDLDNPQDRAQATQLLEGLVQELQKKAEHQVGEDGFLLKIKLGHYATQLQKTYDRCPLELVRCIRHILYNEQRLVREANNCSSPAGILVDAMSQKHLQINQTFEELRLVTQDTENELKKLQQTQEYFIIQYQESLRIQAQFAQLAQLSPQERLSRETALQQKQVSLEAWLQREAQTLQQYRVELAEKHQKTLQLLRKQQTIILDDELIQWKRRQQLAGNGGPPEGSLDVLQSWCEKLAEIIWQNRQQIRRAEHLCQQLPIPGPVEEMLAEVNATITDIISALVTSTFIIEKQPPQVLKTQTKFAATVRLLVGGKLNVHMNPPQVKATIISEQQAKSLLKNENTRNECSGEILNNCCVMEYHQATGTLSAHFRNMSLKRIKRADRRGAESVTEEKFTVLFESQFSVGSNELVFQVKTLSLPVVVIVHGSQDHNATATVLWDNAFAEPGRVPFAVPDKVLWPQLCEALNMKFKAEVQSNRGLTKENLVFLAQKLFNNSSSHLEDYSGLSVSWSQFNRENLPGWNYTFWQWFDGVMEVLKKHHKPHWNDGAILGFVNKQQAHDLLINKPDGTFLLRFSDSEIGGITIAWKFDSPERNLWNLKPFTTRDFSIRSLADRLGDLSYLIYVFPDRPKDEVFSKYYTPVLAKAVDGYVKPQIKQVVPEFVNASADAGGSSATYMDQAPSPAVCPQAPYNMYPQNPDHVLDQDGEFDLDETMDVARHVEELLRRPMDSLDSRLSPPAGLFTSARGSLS

B1: FcgRI IL-4 response element probe (dsDNA)
DNA 1: GTATTTCCCAGAAAAGGAAC
DNA 2: GTTCCTTTTCTGGGAAATAC
binding result: binds
